Laboratory results as given in PMC5828360 (PLoS ONE, 2018).
Bridges are numbered along the chain shown (N, C = ends). [ ]: non-standard residue; d: D form. The star is where a group is joined. Pen = CC(C)(S)[C@H](N)C(=O)O; Thz = O=C(O)[C@@H]1CSCN1; Propionyl = CCC(=O)*

Biological target: T1, recombinant mouse LDLR (His-tagged), extracellular domain (mouse, UniProt P35951 22-790)
T1 construct: mouse low-density lipoprotein receptor, extracellular domain; immobilised on a NiHC sensor chip; in the functional rows it stands for the endogenous LDLR of the mouse; also called mLDLR; murine LDLR; source: bought: Sino Biological
T1 sequence (P35951 22-790): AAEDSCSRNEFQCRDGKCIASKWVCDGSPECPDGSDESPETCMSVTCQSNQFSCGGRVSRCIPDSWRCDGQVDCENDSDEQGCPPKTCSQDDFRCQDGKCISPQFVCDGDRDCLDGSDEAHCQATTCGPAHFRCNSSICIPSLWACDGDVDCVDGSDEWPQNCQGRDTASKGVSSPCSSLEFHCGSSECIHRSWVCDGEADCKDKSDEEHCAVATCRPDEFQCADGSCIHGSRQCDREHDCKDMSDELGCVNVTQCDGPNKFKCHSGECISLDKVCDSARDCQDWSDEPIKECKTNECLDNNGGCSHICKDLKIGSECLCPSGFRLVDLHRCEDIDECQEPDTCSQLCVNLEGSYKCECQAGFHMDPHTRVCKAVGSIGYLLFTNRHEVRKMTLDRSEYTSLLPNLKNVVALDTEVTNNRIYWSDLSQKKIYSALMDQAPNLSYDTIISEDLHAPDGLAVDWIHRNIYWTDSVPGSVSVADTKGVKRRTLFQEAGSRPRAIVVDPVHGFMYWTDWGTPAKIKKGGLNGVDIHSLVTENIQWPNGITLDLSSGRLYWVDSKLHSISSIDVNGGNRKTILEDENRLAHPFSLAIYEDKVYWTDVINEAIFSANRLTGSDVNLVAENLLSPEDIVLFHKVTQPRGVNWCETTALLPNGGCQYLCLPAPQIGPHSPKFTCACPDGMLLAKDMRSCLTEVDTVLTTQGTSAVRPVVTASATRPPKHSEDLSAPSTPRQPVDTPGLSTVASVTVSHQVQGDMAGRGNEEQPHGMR
Experiment: SPR; hLDLR or mLDLR (His-tagged) immobilised on a NiHC sensor chip at 35-60 fmol/mm^2; Biacore T200, 25°C; 50 mM HEPES-NaOH pH7.4, 150 mM NaCl, 0.005% Tween-20, 50μM EDTA; single-cycle kinetics; 1:1 Langmuir model
Details: both partners purified

Row | Binder | Kd [nM]
1 | Propionyl-CMPRLRGC-NH2 (disulfide 1-8 (inferred), 8-residue truncation of VH411; source: synthetic peptide) [VH434 synthetic cyclic peptide] | 280 ± 33
2 | Propionyl-[dC]MPRLRGC-NH2 (disulfide 1-8, printed cMPRLRGC, lower case c = (D)-Cys; also called VH0445; source: synthetic peptide) [VH445 synthetic cyclic peptide] | 233 ± 24
3 | Propionyl-[dC]M[Thz]RLRG[Pen]-NH2 (disulfide 1-8) [VH4127 synthetic cyclic peptide] | 36 ± 1
